± gives the uncertainty stated by the source.
B1: Chromodomain-helicase-DNA-binding protein 4, residues 444 to 496; numbered along this chain, Q14839 (parent)
chain: EDDHHMEFCRVCKDGGELLCCDTCPSSYHIHCLNPPLPEIPNGEWLCPRCTCP

Variants of: B1
Experiment: abundance fitness (aPCA) (normalised: wild type 0, dead -1); higher = more abundant; growth selection in yeast, the domain comes from the species named
Settings: Homo sapiens

Abundance fitness, by site and new letter:
Y28: W -0.259 ± 0.053; F 0.015 ± 0.042; V -0.471 ± 0.076; H -0.54 ± 0.055; E -0.64 ± 0.082; L -0.712 ± 0.058; Q -0.657 ± 0.073; A -0.574 ± 0.079; P -0.667 ± 0.062; M -0.656 ± 0.08; C -0.639 ± 0.099; S -0.566 ± 0.057; K -0.833 ± 0.12; T -0.531 ± 0.069; G -0.605 ± 0.074; N -0.528 ± 0.045
I30: H -0.106 ± 0.061; C -0.108 ± 0.076; L -0.023 ± 0.043; G -0.115 ± 0.058; K -0.047 ± 0.08; Q -0.159 ± 0.06; A -0.003 ± 0.056; T -0.044 ± 0.055; E -0.072 ± 0.07; W -0.238 ± 0.052; R -0.016 ± 0.061; S -0.018 ± 0.046; N -0.072 ± 0.062; D -0.473 ± 0.1; Y -0.102 ± 0.057; M 0.026 ± 0.062; V 0.005 ± 0.054; F -0.037 ± 0.067
N34: F -0.158 ± 0.042; H -0.262 ± 0.069; I -0.075 ± 0.051; P -0.219 ± 0.054; S 0.018 ± 0.048; D -0.114 ± 0.09; K 0.052 ± 0.071; L -0.197 ± 0.046; T -0.014 ± 0.05; M -0.127 ± 0.068; G -0.345 ± 0.075; A -0.08 ± 0.057; E -0.145 ± 0.091; C -0.155 ± 0.067; V -0.073 ± 0.061; R -0.205 ± 0.053
D22: L -0.067 ± 0.04; R -0.058 ± 0.059; K 0.129 ± 0.053; F 0.005 ± 0.057; G -0.011 ± 0.05; P -0.095 ± 0.045; T 0.074 ± 0.047; Q -0.067 ± 0.072; N -0.085 ± 0.065; W -0.254 ± 0.08; A 0.032 ± 0.051; Y -0.112 ± 0.066; E -0.055 ± 0.093; I -0.399 ± 0.077; H -0.02 ± 0.052; V -0.159 ± 0.046; M -0.26 ± 0.072
C32: S -0.821 ± 0.052; M -1 ± 0.079; L -0.99 ± 0.052; I -0.898 ± 0.083; A -0.882 ± 0.067; D -0.68 ± 0.1; V -0.914 ± 0.063; P -0.937 ± 0.074; K -0.933 ± 0.094; R -0.857 ± 0.057; W -1.05 ± 0.1; Q -0.369 ± 0.085; E -0.66 ± 0.1; F -1.02 ± 0.059; N -1.15 ± 0.14
L33: Q -0.602 ± 0.063; W -0.954 ± 0.14; S -0.54 ± 0.044; E -0.685 ± 0.2; N -0.732 ± 0.061; C -0.421 ± 0.051; I -0.085 ± 0.042; G -0.598 ± 0.087; F -0.373 ± 0.048; A -0.429 ± 0.057; M -0.326 ± 0.067; T -0.361 ± 0.05; K -0.61 ± 0.055; P -0.703 ± 0.052; D -0.561 ± 0.092; H -0.626 ± 0.053; R -0.787 ± 0.073
C21: S -0.994 ± 0.063; R -0.762 ± 0.052; Q -0.76 ± 0.09; F -1.02 ± 0.12; T -0.902 ± 0.079; G -0.722 ± 0.054; D -0.875 ± 0.086; V -1.05 ± 0.088; M -0.955 ± 0.067; W -1.12 ± 0.1; N -0.787 ± 0.07; A -0.71 ± 0.086; P -0.829 ± 0.048; Y -0.871 ± 0.066; L -1.07 ± 0.05; E -0.239 ± 0.1; I -0.853 ± 0.066; K -0.795 ± 0.059; H -0.745 ± 0.047
P25: S -0.1 ± 0.056; H -0.024 ± 0.045; F -0.167 ± 0.077; M -0.167 ± 0.054; V -0.18 ± 0.048; N -0.303 ± 0.072; R 0.032 ± 0.058; Q -0.209 ± 0.077; I -0.15 ± 0.051; K -0.078 ± 0.055; G -0.106 ± 0.072; W -0.061 ± 0.087; D -0.172 ± 0.089; A -0.124 ± 0.079; L -0.163 ± 0.044; E -0.28 ± 0.15; C -0.087 ± 0.051
L37: N -0.244 ± 0.056; P 0.018 ± 0.044; C -0.194 ± 0.053; E -0.249 ± 0.094; I -0.049 ± 0.066; M -0.115 ± 0.05; F -0.271 ± 0.056; Q -0.135 ± 0.054
L18: I -0.357 ± 0.068; T -0.373 ± 0.051; P -1.07 ± 0.072; F -0.581 ± 0.068; H -0.66 ± 0.079; V -0.117 ± 0.052; Y -0.751 ± 0.055; G -0.732 ± 0.093; N -0.489 ± 0.07; M 0.037 ± 0.051; S -0.717 ± 0.061; Q -0.397 ± 0.071; K -0.517 ± 0.1; R -0.394 ± 0.05; W -0.738 ± 0.054
P36: Q -0.026 ± 0.062; F -0.604 ± 0.068; T -0.18 ± 0.049; C -0.546 ± 0.088; V -0.22 ± 0.068; W -0.546 ± 0.086; D -0.323 ± 0.1; I -0.195 ± 0.054; R -0.095 ± 0.046; M -0.274 ± 0.052; G -0.244 ± 0.064; L -0.458 ± 0.045; E -0.33 ± 0.1; N -0.294 ± 0.074; S -0.1 ± 0.047; Y -0.539 ± 0.06; K 0.102 ± 0.073; A -0.035 ± 0.048
L19: F -0.262 ± 0.073; I 0.1 ± 0.068; S -0.291 ± 0.046; N -0.116 ± 0.079; D -0.354 ± 0.089; T 0.037 ± 0.05; R -0.314 ± 0.044; V -0.056 ± 0.059; G -0.488 ± 0.052; Y -0.276 ± 0.066; M 0.041 ± 0.066; H -0.189 ± 0.055; E -0.632 ± 0.1; K -0.033 ± 0.072; A 0.118 ± 0.048; Q -0.157 ± 0.065; P -0.484 ± 0.063; C -0.075 ± 0.076
P35: K -0.199 ± 0.072; V -0.399 ± 0.059; A -0.296 ± 0.057; H -0.386 ± 0.071; Q -0.226 ± 0.064; I -0.432 ± 0.078; F -0.45 ± 0.05; L -0.378 ± 0.046; D -0.262 ± 0.093; S -0.261 ± 0.042; W -0.593 ± 0.047; Y -0.301 ± 0.052; T -0.198 ± 0.051; N -0.302 ± 0.064; G -0.289 ± 0.067; E -0.076 ± 0.088
S26: H 0.021 ± 0.07; C -0.05 ± 0.045; W -0.11 ± 0.068; V -0.132 ± 0.063; L -0.088 ± 0.048; Q 0.08 ± 0.072; R 0.003 ± 0.042; N -0.073 ± 0.08; E 0.015 ± 0.052; A 0.104 ± 0.066; M 0.132 ± 0.052; K -0.324 ± 0.049; P -0.625 ± 0.067; Y -0.103 ± 0.071; G 0.029 ± 0.059; F -0.039 ± 0.06
H29: I -0.822 ± 0.09; V -1.06 ± 0.063; N -0.556 ± 0.12; Q -0.833 ± 0.11; C -0.317 ± 0.063; E -0.804 ± 0.11; R -0.97 ± 0.059; P -0.814 ± 0.072; D -0.811 ± 0.079; A -0.748 ± 0.056; L -0.983 ± 0.066; T -0.921 ± 0.048; W -1.1 ± 0.1; Y -0.787 ± 0.072; M -0.998 ± 0.097; F -0.918 ± 0.11; S -0.728 ± 0.054
T23: I -0.042 ± 0.042; Q -0.07 ± 0.066; V -0.075 ± 0.072; K -0.031 ± 0.065; P -0.738 ± 0.053; F -0.221 ± 0.077; N 0.093 ± 0.067; R 0.038 ± 0.063; A -0.119 ± 0.074; M -0.077 ± 0.067; S -0.044 ± 0.049; L -0.195 ± 0.053; C -0.074 ± 0.088; Y -0.084 ± 0.058; E 0.047 ± 0.083; D -0.305 ± 0.11; H -0.107 ± 0.076; W -0.2 ± 0.044
C20: L 0.012 ± 0.043; H 0.168 ± 0.065; S 0.093 ± 0.047; V -0.035 ± 0.045; P 0.096 ± 0.057; M 0.017 ± 0.064; I 0.103 ± 0.042; D 0.012 ± 0.082; A 0.099 ± 0.057; N 0.14 ± 0.069; Q 0.17 ± 0.065; K 0.095 ± 0.078; W 0.069 ± 0.056; G 0.083 ± 0.059; Y 0.066 ± 0.049; F -0.035 ± 0.06; E 0.136 ± 0.065; R 0.13 ± 0.048
S27: P -0.572 ± 0.075; M -0.14 ± 0.076; K -0.082 ± 0.073; H -0.068 ± 0.059; Q -0.064 ± 0.076; D -0.705 ± 0.12; A 0.067 ± 0.062; I -0.394 ± 0.091; N -0.026 ± 0.07; F -0.177 ± 0.076; V -0.057 ± 0.049; C -0.018 ± 0.075; Y 0.029 ± 0.059; T -0.044 ± 0.057; E -0.472 ± 0.12; R 0.016 ± 0.052; G -0.22 ± 0.057; W -0.198 ± 0.067
H31: R -0.042 ± 0.053; C -0.046 ± 0.068; L -0.194 ± 0.043; D -0.197 ± 0.081; E -0.046 ± 0.05; T -0.042 ± 0.054; W -0.285 ± 0.056; A -0.138 ± 0.057; K 0.035 ± 0.05; M -0.063 ± 0.067; G 0.002 ± 0.06; Q -0.042 ± 0.063; N 0.106 ± 0.074; V -0.068 ± 0.059; F 0.017 ± 0.056; P -0.354 ± 0.059; S -0.203 ± 0.051; Y -0.097 ± 0.046; I -0.217 ± 0.062
C24: I -0.706 ± 0.061; T -0.862 ± 0.079; M -0.944 ± 0.058; F -1.01 ± 0.12; N -0.881 ± 0.11; V -0.617 ± 0.054; L -0.816 ± 0.047; K -0.702 ± 0.048; E -1.09 ± 0.16; Q -0.907 ± 0.078; Y -0.696 ± 0.1; G -0.894 ± 0.073; H -0.909 ± 0.097; W -0.905 ± 0.11; A -0.739 ± 0.05; P -0.819 ± 0.064; S -0.788 ± 0.064; R -0.629 ± 0.061
